Laboratory results from patent publication US20240124586A1 (WUXI BIOLOGICS IRELAND, published 2024).
Values belong to the binder of their own block, whether it stands above or below them.

Key:
[1] = biological target: T1, human PD-1 on engineered CHO-S cells (W305-CHO-S.hPro1.C6) (human, UniProt Q15116 25-288); experiment: FACS on human PD-1 engineered cells
T1 construct: whole, on cells; also called human PD-1 engineered cells; PD-1+ cells
Description: (§1) Engineered human PD-1 expressing cells W305-CHO-S.hPro1.C6 were seeded at 1×10⁵ cells/well in U-bottom 96-well plates (COSTAR 3799). Antibodies with 3.16-fold titration in 1% BSA DPBS from 200 nM to 0.002 nM were added to the cells. The plates were incubated at 4° C. for 1 hour. After wash, […] 1:125 diluted PE-labeled goat anti-human antibody (Jackson 109-115-098) was added to each well and the plates were incubated at 4° C. for 1 hour. The binding of the antibodies onto the cells was tested by flow cytometry and the mean fluorescence intensity (MFI) was analyzed by FlowJo.

[2] = biological target: T2, human CTLA-4 on engineered 293F cells (W316-293F.hPro1.FL) (human, UniProt P16410 36-223); experiment: FACS on human CTLA-4 engineered cells
T2 construct: whole, on cells; also called human CTLA-4 engineered cells; CTLA-4+ cells
T2 sequence (P16410 36-223, change not shown): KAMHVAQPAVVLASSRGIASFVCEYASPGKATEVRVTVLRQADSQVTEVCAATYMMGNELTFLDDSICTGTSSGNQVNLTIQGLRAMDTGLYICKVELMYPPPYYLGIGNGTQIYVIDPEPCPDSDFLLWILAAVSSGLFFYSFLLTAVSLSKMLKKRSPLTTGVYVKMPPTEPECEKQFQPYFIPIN
Description: (§2) 3.16-fold titrated Abs with 1% BSA DPBS from 200 nM to 0.002 nM were added to the cells. Plates were incubated at 4° C. for 1 hour. After wash, […] 1:150 diluted PE-labeled goat anti-human antibody (Jackson 109-115-098) was added to each well and the plates were incubated at 4° C. for 1 hour. The binding of the antibodies onto the cells was tested by flow cytometry and the mean fluorescence intensity (MFI) was analyzed by FlowJo.

[3] = biological target: T1, human PD-1 on engineered CHO-S cells …; experiment: FACS binding to human PD-1 engineered cells
Description: as §1

[4] = biological target: T2, human CTLA-4 on engineered 293F cells …; experiment: FACS binding to human CTLA-4 engineered cells
Description: as §2

[5] = biological target: T3, cynomolgus PD-1 on engineered 293F cells (W305-293F.cynoPro1.FL.pool) (cynomolgus); experiment: FACS binding to cynomolgus PD-1 engineered cells
T3 construct: whole, on cells; also called cynomolgus PD-1 engineered cells
Description: as §2, with “4.0-fold” for “3.16-fold”, “40 μg/ml” for “200 nM”, “0.0001526 μg/ml” for “0.002 nM”

[6] = biological target: T1, human PD-1 on engineered CHO-S cells …; experiment: FACS competition: blocks human PD-L1 protein (W315-hPro1.ECD.mFc) binding to human PD-1 engineered cells
Description: In order to test whether the bispecific antibodies could block hPD-L1 binding to hPD-1 protein, a competitive FACS was conducted. […] Plates were incubated at 4° C. for 1 hour. After wash, the binding of W315-hPro1.ECD.mFc to cell expressive human PD-1 was detected by FITC-labeled goat anti-mouse antibody (abcam 98716 1:125). The competition binding of antibodies to the cells was tested by flow cytometry and the mean fluorescence intensity (MFI) was analyzed by FlowJo.

T1 sequence (Q15116 25-288, change not shown): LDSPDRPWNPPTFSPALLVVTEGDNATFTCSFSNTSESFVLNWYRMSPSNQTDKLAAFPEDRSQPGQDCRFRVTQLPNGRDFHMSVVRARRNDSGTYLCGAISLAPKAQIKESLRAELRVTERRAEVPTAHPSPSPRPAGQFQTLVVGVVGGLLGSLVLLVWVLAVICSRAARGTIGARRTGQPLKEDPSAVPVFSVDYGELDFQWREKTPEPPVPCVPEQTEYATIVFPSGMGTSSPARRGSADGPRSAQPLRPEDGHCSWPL

B1: U6T5.G19.IgG4, bispecific anti-PD-1 x CTLA-4 (bispecific antibody)
heavy: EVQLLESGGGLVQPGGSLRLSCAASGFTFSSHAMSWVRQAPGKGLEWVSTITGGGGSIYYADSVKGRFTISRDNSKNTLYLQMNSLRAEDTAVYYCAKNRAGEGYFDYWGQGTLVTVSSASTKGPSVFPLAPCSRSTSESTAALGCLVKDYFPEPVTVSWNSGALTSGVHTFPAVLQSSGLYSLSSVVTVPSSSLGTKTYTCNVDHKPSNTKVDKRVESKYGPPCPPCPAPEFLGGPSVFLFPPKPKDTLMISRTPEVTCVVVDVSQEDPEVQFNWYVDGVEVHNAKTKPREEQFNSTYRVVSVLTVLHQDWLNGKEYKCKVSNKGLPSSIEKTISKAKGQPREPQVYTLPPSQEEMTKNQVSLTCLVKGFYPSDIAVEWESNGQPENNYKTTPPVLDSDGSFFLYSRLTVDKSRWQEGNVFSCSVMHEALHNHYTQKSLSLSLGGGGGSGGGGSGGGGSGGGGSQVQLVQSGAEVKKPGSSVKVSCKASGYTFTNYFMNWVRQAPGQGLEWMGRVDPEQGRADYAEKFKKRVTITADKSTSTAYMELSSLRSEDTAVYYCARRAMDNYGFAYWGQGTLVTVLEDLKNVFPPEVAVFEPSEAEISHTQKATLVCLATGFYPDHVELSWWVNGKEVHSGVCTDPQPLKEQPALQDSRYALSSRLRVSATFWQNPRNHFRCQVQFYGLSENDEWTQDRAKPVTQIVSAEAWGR
light 1: SYELTQPLSVSVALGQTARITCGGDNIGNKDVHWYQQKPGQAPVLVIYRDSNRPSGIPEGFSGSNSGNTATLTISRAQAGDEADYYCQVWDSIWVFGGGTKLTVLGQPKAAPSVTLFPPSSEELQANKATLVCLISDFYPGAVTVAWKADSSPVKAGVETTTPSKQSNNKYAASSYLSLTPEQWKSHKSYSCQVTHEGSTVEKTVAPTECS
light 2: EIVLTQSPDFQSVTPKEKVTITCSANSALSYMYWYQQKPDQSPKLWVHGTSNLASGVPSRFSGSGSGTDFTLTINSLEAEDAATYYCHHWSNTQWTFGGGTKVEIKPDIQNPDPAVYQLRDSKSSDKSVCLFTDFDSQTQVSQSKDSDVYITDKCVLDMRSMDFKSNSAVAWSQKSDFACANAFQNSIIPEDTFFPSPESS
notes: T5 = anti-CTLA-4 antibody W3162_1.154.8-z35; also called U6T5 in G19 format
- EC50 [1]: 0.97 nM
- EC50 [2]: 8.93 nM

B3: T4U6.G26R.IgG4, bispecific anti-CTLA-4 x PD-1 (bispecific antibody)
chain: QVQLQESGPGLVKPSETLSLTCSVTYHTITSGYDWTWIRKPPGKGMEWIGYISYSGNTNYNPSLKSRVTISRDTSKNQFFLKLSSVTAADTAVYYCASMMVPHYYVMDAWGQGTLVTVSSASTKGPSVFPLAPCSRSTSESTAALGCLVKDYFPEPVTVSWNSGALTSGVHTFPAVLQSSGLYSLSSVVTVPSSSLGTKTYTCNVDHKPSNTKVDKRVGGGGSGGGGSSYELTQPLSVSVALGQTARITCGGDNIGNKDVHWYQQKPGQAPVLVIYRDSNRPSGIPEGFSGSNSGNTATLTISRAQAGDEADYYCQVWDSIWVFGGGTKLTVLPDIQNPDPAVYQLRDSKSSDKSVCLFTDFDSQTQVSQSKDSDVYITDKCVLDMRSMDFKSNSAVAWSQKSDFACANAFQNSIIPEDTFFPSPESS
heavy: EVQLLESGGGLVQPGGSLRLSCAASGFTFSSHAMSWVRQAPGKGLEWVSTITGGGGSIYYADSVKGRFTISRDNSKNTLYLQMNSLRAEDTAVYYCAKNRAGEGYFDYWGQGTLVTVLEDLKNVFPPEVAVFEPSEAEISHTQKATLVCLATGFYPDHVELSWWVNGKEVHSGVCTDPQPLKEQPALQDSRYALSSRLRVSATFWQNPRNHFRCQVQFYGLSENDEWTQDRAKPVTQIVSAEAWGRYGPPCPPCPAPEFLGGPSVFLFPPKPKDTLMISRTPEVTCVVVDVSQEDPEVQFNWYVDGVEVHNAKTKPREEQFNSTYRVVSVLTVLHQDWLNGKEYKCKVSNKGLPSSIEKTISKAKGQPREPQVYTLPPSQEEMTKNQVSLTCLVKGFYPSDIAVEWESNGQPENNYKTTPPVLDSDGSFFLYSRLTVDKSRWQEGNVFSCSVMHEALHNHYTQKSLSLSLG
light: DIVMTQTPLSLSVTPGQPASISCRSSQSLLNSDGNTYLYWYLQKPGQSPQLLIYLVSKLGSGVPNRFSGSGSGTDFTLKISRVEAEDVGVYYCVQGTHDPWTFGGGTKVEIKRTVAAPSVFIFPPSDEQLKSGTASVVCLLNNFYPREAKVQWKVDNALQSGNSQESVTEQDSKDSTYSLSSTLTLSKADYEKHKVYACEVTHQGLSSPVTKSFNRGEC
notes: Light-heavy crossed chimeric Fab; first chain is T4-HC fused to U6-LC; T4 = WBP3162-1.146.19-z12; also called T4U6 antibody pair in G26R format
- EC50 [3]: 4.78 nM
- EC50 [4]: 5.91 nM

B4: U6T5.G19R.IgG4, bispecific anti-PD-1 x CTLA-4 (bispecific antibody)
heavy: EVQLLESGGGLVQPGGSLRLSCAASGFTFSSHAMSWVRQAPGKGLEWVSTITGGGGSIYYADSVKGRFTISRDNSKNTLYLQMNSLRAEDTAVYYCAKNRAGEGYFDYWGQGTLVTVLEDLKNVFPPEVAVFEPSEAEISHTQKATLVCLATGFYPDHVELSWWVNGKEVHSGVCTDPQPLKEQPALQDSRYALSSRLRVSATFWQNPRNHFRCQVQFYGLSENDEWTQDRAKPVTQIVSAEAWGRYGPPCPPCPAPEFLGGPSVFLFPPKPKDTLMISRTPEVTCVVVDVSQEDPEVQFNWYVDGVEVHNAKTKPREEQFNSTYRVVSVLTVLHQDWLNGKEYKCKVSNKGLPSSIEKTISKAKGQPREPQVYTLPPSQEEMTKNQVSLTCLVKGFYPSDIAVEWESNGQPENNYKTTPPVLDSDGSFFLYSRLTVDKSRWQEGNVFSCSVMHEALHNHYTQKSLSLSLGGGGGSGGGGSGGGGSGGGGSQVQLVQSGAEVKKPGSSVKVSCKASGYTFTNYFMNWVRQAPGQGLEWMGRVDPEQGRADYAEKFKKRVTITADKSTSTAYMELSSLRSEDTAVYYCARRAMDNYGFAYWGQGTLVTVSSASTKGPSVFPLAPCSRSTSESTAALGCLVKDYFPEPVTVSWNSGALTSGVHTFPAVLQSSGLYSLSSVVTVPSSSLGTKTYTCNVDHKPSNTKVDKRV
light 1: SYELTQPLSVSVALGQTARITCGGDNIGNKDVHWYQQKPGQAPVLVIYRDSNRPSGIPEGFSGSNSGNTATLTISRAQAGDEADYYCQVWDSIWVFGGGTKLTVLPDIQNPDPAVYQLRDSKSSDKSVCLFTDFDSQTQVSQSKDSDVYITDKCVLDMRSMDFKSNSAVAWSQKSDFACANAFQNSIIPEDTFFPSPESS
light 2: EIVLTQSPDFQSVTPKEKVTITCSANSALSYMYWYQQKPDQSPKLWVHGTSNLASGVPSRFSGSGSGTDFTLTINSLEAEDAATYYCHHWSNTQWTFGGGTKVEIKRTVAAPSVFIFPPSDEQLKSGTASVVCLLNNFYPREAKVQWKVDNALQSGNSQESVTEQDSKDSTYSLSSTLTLSKADYEKHKVYACEVTHQGLSSPVTKSFNRGEC
notes: also called U6T5 in G19R format
- EC50 [1]: 1.26 nM
- EC50 [2]: 8.23 nM

Other lines, results leading:

- EC50 [1]: 1.56 nM
- EC50 [2]: 8.36 nM
B2: U6T5.G25R.IgG4, bispecific anti-PD-1 x CTLA-4 (bispecific antibody)
heavy: EVQLLESGGGLVQPGGSLRLSCAASGFTFSSHAMSWVRQAPGKGLEWVSTITGGGGSIYYADSVKGRFTISRDNSKNTLYLQMNSLRAEDTAVYYCAKNRAGEGYFDYWGQGTLVTVSSASTKGPSVFPLAPCSRSTSESTAALGCLVKDYFPEPVTVSWNSGALTSGVHTFPAVLQSSGLYSLSSVVTVPSSSLGTKTYTCNVDHKPSNTKVDKRVGGGGSGGGGSQVQLVQSGAEVKKPGSSVKVSCKASGYTFTNYFMNWVRQAPGQGLEWMGRVDPEQGRADYAEKFKKRVTITADKSTSTAYMELSSLRSEDTAVYYCARRAMDNYGFAYWGQGTLVTVLEDLKNVFPPEVAVFEPSEAEISHTQKATLVCLATGFYPDHVELSWWVNGKEVHSGVCTDPQPLKEQPALQDSRYALSSRLRVSATFWQNPRNHFRCQVQFYGLSENDEWTQDRAKPVTQIVSAEAWGRYGPPCPPCPAPEFLGGPSVFLFPPKPKDTLMISRTPEVTCVVVDVSQEDPEVQFNWYVDGVEVHNAKTKPREEQFNSTYRVVSVLTVLHQDWLNGKEYKCKVSNKGLPSSIEKTISKAKGQPREPQVYTLPPSQEEMTKNQVSLTCLVKGFYPSDIAVEWESNGQPENNYKTTPPVLDSDGSFFLYSRLTVDKSRWQEGNVFSCSVMHEALHNHYTQKSLSLSLGK
light 1: B1 light 1
light 2: B1 light 2
notes: also called U6T5.G25R.uIgG4; U6T5 in G25R format

- EC50 [5]: 3.48 nM
- Top(MFI) [5]: 56700 MFI
- IC50 [6]: 0.888 nM
- Inhibition % [6]: 98.6%
B5: WBP3055_1.153.7.hAb (antibody, V domains shown)
VH: EVQLLESGGGLVQPGGSLRLSCAASGFTFSSHAMSWVRQAPGKGLEWVSTITGGGGSIYYADSVKGRFTISRDNSKNTLYLQMNSLRAEDTAVYYCAKNRAGEGYFDYWGQGTLVTVSS
VL: SYELTQPLSVSVALGQTARITCGGDNIGNKDVHWYQQKPGQAPVLVIYRDSNRPSGIPEGFSGSNSGNTATLTISRAQAGDEADYYCQVWDSIWVFGGGTKLTVL
notes: anti-PD-1 antibody, parent of the U6 arm; also called W3055_1.153.7 (named U6); WBP3055-1.153.7.uIgG4k
